Reference: patent publication US20230029453A1

B1: P87 9-mer … (AR-Intron) (peptide)
peptide: FLFLLLPLS
modifications: here or on the partner: biotinylated heavy chain
B2: P73 9-mer … (TP53 G266E) (peptide)
peptide: LLERNSFEV
modifications: here or on the partner: biotinylated heavy chain
B3: P22 9-mer … (SLC45A3-ELK4 fusion) (peptide)
peptide: QLIAMDSAI
modifications: here or on the partner: biotinylated heavy chain
B4: P61 9-mer … (FOXA1.p.R261G) (peptide)
peptide: CYLGRQKRF
modifications: here or on the partner: biotinylated heavy chain
B5: P56 9-mer … (SPOP F102C) (peptide)
peptide: RAKCKFSIL
modifications: here or on the partner: biotinylated heavy chain
B6: P82 9-mer … (AR-V7) (peptide)
peptide: RVGNCKHLK
modifications: here or on the partner: biotinylated heavy chain
B7: P97 9-mer … (FOXRED2-TXN2 fusion) (peptide)
peptide: LMAQRLLLR
modifications: here or on the partner: biotinylated heavy chain
B8: P19 9-mer … (TMEM222-LOC644061 fusion) (peptide)
peptide: IPVLTRWPL
modifications: here or on the partner: biotinylated heavy chain
B9: P58 9-mer … (AR Q903H) (peptide)
peptide: HVPKILSGK
modifications: here or on the partner: biotinylated heavy chain
B10: P17 9-mer … (MSMB-NOCA4 fusion) (peptide)
peptide: RAVRRMNTF
modifications: here or on the partner: biotinylated heavy chain
B11: P46 9-mer … (TP53 R213D frameshift) (peptide)
peptide: CPMSRLRLA
modifications: here or on the partner: biotinylated heavy chain
B12: P60 9-mer … (FOXA1.p.F266L) (peptide)
peptide: YLRRQKRLK
modifications: here or on the partner: biotinylated heavy chain
B13: P98 9-mer … (TP53 R213D frameshift) (peptide)
peptide: IVWWCPMSR
modifications: here or on the partner: biotinylated heavy chain
B14: P76 9-mer … (AR-V3) (peptide)
peptide: YCMAAPMGL
modifications: here or on the partner: biotinylated heavy chain
B15: P48 9-mer … (AR.p.H875Y) (peptide)
peptide: YQFTFDLLI
modifications: here or on the partner: biotinylated heavy chain
B16: Exchange control peptide … (peptide)
peptide: LIYRRRLMK
modifications: not checked
B17: Exchange control peptide … (peptide)
peptide: NPKASLLSL
modifications: not checked

Biological target: HLA-B*08:01 (human)
Assay: UV peptide exchange; HLA class I ELISA
Settings: remark: other sources report otherwise

Row | Binder | exchange rate with Pos | Average % | Exch I (%) | Exch II (%)
1 | B1 | 3.1% |  |  | 
2 | B2 | 2.6% |  |  | 
3 | B3 | 3.9% | 7.9% | 8% | 7.8%
4 | B4 | 3.6% |  |  | 
5 | B5 | 38% |  |  | 
6 | B6 | 1.4% |  |  | 
7 | B7 | 2.7% |  |  | 
8 | B8 | 14.5% |  |  | 
9 | B9 | 5.3% |  |  | 
10 | B10 | 9% |  |  | 
11 | B11 | 14.5% |  |  | 
12 | B12 | 10.2% |  |  | 
13 | B13 | 2.4% |  |  | 

Biological target: HLA-A*03:01 (human)
Assay: UV peptide exchange; HLA class I ELISA
Settings: remark: other sources report otherwise

Row | Binder | exchange rate with Pos
14 | B14 | 6%
15 | B1 | 2.4%
16 | B2 | 3.5%
17 | B3 | 4.8%
18 | B5 | 6.8%
19 | B6 | 58.1%
20 | B7 | 39%
21 | B8 | 4.1%
22 | B15 | 4.4%
23 | B9 | 32.5%
24 | B10 | 3.8%
25 | B11 | 10.3%
26 | B12 | 36.6%
27 | B13 | 51.1%

Biological target: HLA-B*07:02 (human)
Assay: UV peptide exchange; HLA class I ELISA
Settings: remark: other sources report otherwise

Row | Binder | exchange rate with Pos | Average % | Exch I (%) | Exch II (%)
28 | B14 | 91.5% |  |  | 
29 | B1 | 5% |  |  | 
30 | B2 | 8.7% |  |  | 
31 | B3 | 8.3% | 12% | 12.2% | 11.8%
32 | B5 | 82.5% |  |  | 
33 | B6 | 12.9% |  |  | 
34 | B7 | 7% |  |  | 
35 | B16 |  | 13.7% | 13% | 14.3%
36 | B8 | 91.3% |  |  | 
37 | B15 | 12.8% |  |  | 
38 | B10 | 38.7% |  |  | 
39 | B11 | 64.8% |  |  | 
40 | B12 | 6.1% |  |  | 
41 | B13 | 6.7% |  |  | 

Biological target: HLA-A*01:01 (human)
Assay: UV peptide exchange; HLA class I ELISA
Settings: remark: other sources report otherwise

Row | Binder | exchange rate with Pos | Average % | Exch I (%) | Exch II (%)
42 | B14 | 0.1% |  |  | 
43 | B1 | 1.1% |  |  | 
44 | B3 | 4.4% | 5% | 5% | 4.9%
45 | B4 | 1.7% |  |  | 
46 | B5 | 2.6% |  |  | 
47 | B17 |  | 6.5% | 7.4% | 5.6%
48 | B6 | 1.5% |  |  | 
49 | B7 | 2.5% |  |  | 
50 | B8 | 5.2% |  |  | 
51 | B15 | 4.3% |  |  | 
52 | B9 | 2.5% |  |  | 
53 | B10 | 4.9% |  |  | 
54 | B11 | 2.4% |  |  | 
55 | B12 | 3.1% |  |  | 
56 | B13 | 2.5% |  |  | 

Biological target: HLA-A*02:01 (human)
Assay: UV peptide exchange; HLA class I ELISA
Settings: remark: other sources report otherwise

Row | Binder | exchange rate with Pos | Average % | Exch I (%) | Exch II (%)
57 | B14 | 85.9% |  |  | 
58 | B1 | 64% |  |  | 
59 | B2 | 89.2% |  |  | 
60 | B3 | 46.9% | 41.5% | 40% | 43.1%
61 | B4 | 5.8% |  |  | 
62 | B5 | 8.4% |  |  | 
63 | B6 | 6.3% |  |  | 
64 | B7 | 4.6% |  |  | 
65 | B8 | 8.2% |  |  | 
66 | B15 | 99.3% |  |  | 
67 | B9 | 11.8% |  |  | 
68 | B11 | 14.4% |  |  | 
69 | B12 | 7.9% |  |  | 
70 | B13 | 7.9% |  |  | 

Biological target: HLA-A*24:02 (human)
Assay: UV peptide exchange; HLA class I ELISA
Settings: remark: other sources report otherwise

Row | Binder | exchange rate with Pos | Average % | Exch I (%) | Exch II (%)
71 | B14 | -0.5% |  |  | 
72 | B1 | 0.2% |  |  | 
73 | B2 | 0.5% |  |  | 
74 | B3 | 0% | 4.5% | 4.8% | 4.1%
75 | B4 | 90.3% |  |  | 
76 | B5 | 0.5% |  |  | 
77 | B6 | -0.1% |  |  | 
78 | B7 | 0.1% |  |  | 
79 | B8 | 0.1% |  |  | 
80 | B15 | 0.1% |  |  | 
81 | B9 | 0.2% |  |  | 
82 | B10 | 0.1% |  |  | 
83 | B11 | -0.4% |  |  | 
84 | B12 | 0.9% |  |  | 
85 | B13 | -0.1% |  |  | 

Biological target: HLA-B*27:05 (human)
Assay: UV peptide exchange; HLA class I ELISA
Settings: remark: other sources report otherwise

Row | Binder | Average % | Exch I (%) | Exch II (%)
86 | B3 | 4.3% | 4.7% | 3.9%
